The target in the assay is T1, human KDR-Fc fusion (R&D Systems #357-KD-050) (human, UniProt P35968 20-764).
T1 construct: bought
T1 sequence (P35968 20-764): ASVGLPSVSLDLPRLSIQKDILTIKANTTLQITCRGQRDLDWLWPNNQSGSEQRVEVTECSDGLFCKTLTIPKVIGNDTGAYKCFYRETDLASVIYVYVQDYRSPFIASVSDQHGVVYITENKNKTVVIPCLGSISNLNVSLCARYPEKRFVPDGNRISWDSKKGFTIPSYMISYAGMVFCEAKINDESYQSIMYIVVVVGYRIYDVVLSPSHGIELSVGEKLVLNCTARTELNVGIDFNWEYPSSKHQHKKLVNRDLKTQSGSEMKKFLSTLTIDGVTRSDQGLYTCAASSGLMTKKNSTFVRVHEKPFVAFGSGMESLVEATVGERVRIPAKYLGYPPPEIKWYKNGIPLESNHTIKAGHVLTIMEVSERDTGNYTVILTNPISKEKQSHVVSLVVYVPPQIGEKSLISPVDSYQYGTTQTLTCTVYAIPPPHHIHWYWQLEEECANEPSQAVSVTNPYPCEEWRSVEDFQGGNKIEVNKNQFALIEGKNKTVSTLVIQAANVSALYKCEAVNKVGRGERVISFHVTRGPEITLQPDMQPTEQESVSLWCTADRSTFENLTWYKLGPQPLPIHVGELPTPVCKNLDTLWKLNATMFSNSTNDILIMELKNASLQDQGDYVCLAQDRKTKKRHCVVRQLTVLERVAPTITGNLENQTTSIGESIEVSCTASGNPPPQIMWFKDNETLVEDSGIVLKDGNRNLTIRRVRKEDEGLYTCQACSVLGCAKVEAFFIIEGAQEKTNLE
In words: phage binding screen on KDR-Fc; class legend in paragraph 246.
In the case of WIICDGNLGWCWEG [phage isolate WIICDGNLGWCWEG], the binding result is “binds”.
For DFNCKMIDGFCLLK [phage isolate DFNCKMIDGFCLLK], the binding result is recorded as “binds”.
With WIECHYKTGHCIHS [phage isolate WIECHYKTGHCIHS] the entry was “binds”.
With WVECFMDTGACYTF [phage isolate WVECFMDTGACYTF], the binding result is recorded as “binds”.
Turning to SVECFMDTGACYTF [phage isolate SVECFMDTGACYTF], the binding result is listed as “binds”.
As to WEWCPIDAWECIML [phage isolate WEWCPIDAWECIML], the binding result is “binds”.
ANWCEEDWYYCFIT [phage isolate ANWCEEDWYYCFIT]: the binding result is “binds”.
As to VNWCEEDWYYCWIT [phage isolate VNWCEEDWYYCWIT], the binding result is given as “binds”.
Take ANWCEEDWYYCYIT [phage isolate ANWCEEDWYYCYIT]: the binding result is on record as “binds”.
For ANWCEEDWYYCWIT [phage isolate ANWCEEDWYYCWIT], the binding result is recorded as “binds”.
On to SNWCEEDWYYCYIT [phage isolate SNWCEEDWYYCYIT], for which the binding result is listed as “binds”.
Then RNWCEEDWYYCFIT [phage isolate RNWCEEDWYYCFIT], with “binds”.
With PEWCEVDWYYCWLL [phage isolate PEWCEVDWYYCWLL] the entry was “binds”.
With LIECYAHTGLCFDF [phage isolate LIECYAHTGLCFDF] the entry was “binds”; with WIQCDMETGLCTHG [phage isolate WIQCDMETGLCTHG], “binds”.
On to PTWCEDDWYYCWLF [phage isolate PTWCEDDWYYCWLF], for which the binding result was “binds”.
Take TITCWMDTGHCMHE [phage isolate TITCWMDTGHCMHE]: the binding result was “binds”.
WIQCNSITGHCTSG [phage isolate WIQCNSITGHCTSG]: the binding result is given as “binds”.
Consider WYWCHHIGMYCDGF [phage isolate WYWCHHIGMYCDGF], for which the binding result is on record as “binds”.
For SDWCRVDWYYCWLM [phage isolate SDWCRVDWYYCWLM], the binding result is on record as “binds”.
With WVECWWKSGQCYEF [phage isolate WVECWWKSGQCYEF] the entry was “binds”; with WVECWWKYGQCYEF [phage isolate WVECWWKYGQCYEF], “binds”; with PDWCEEDWYYCWIT [phage isolate PDWCEEDWYYCWIT], “binds”.
With TGNCQEDWYYCWYF [phage isolate TGNCQEDWYYCWYF], the binding result was “binds”.
Then PNTCETFDLYCWWI [phage isolate PNTCETFDLYCWWI], with “binds”; and SKWCEQDWYYCWLL [phage isolate SKWCEQDWYYCWLL], with “binds”; and HYECWYPEGKCYFY [phage isolate HYECWYPEGKCYFY], with “binds”.
With WIECYHPDGICYHF [phage isolate WIECYHPDGICYHF] the entry was “binds”; with HWECYSDTGKCWFF [phage isolate HWECYSDTGKCWFF], “binds”; with HWWCAFQPQECEYW [phage isolate HWWCAFQPQECEYW], “binds”.
With GVECYKHSGMCRSW [phage isolate GVECYKHSGMCRSW] the entry was “binds”; with WIQCDRKAGRCSRG [phage isolate WIQCDRKAGRCSRG], “binds”; with LVMCISPEGYCYEI [phage isolate LVMCISPEGYCYEI], “binds”.
As for PDWCAADWYYCYIT [phage isolate PDWCAADWYYCYIT], the binding result was “binds”.
As to LNICKEDWYYCFLL [phage isolate LNICKEDWYYCFLL], the binding result is recorded as “binds”.
With YVDCYYDTGRCYHQ [phage isolate YVDCYYDTGRCYHQ] the entry was “binds”; with WTECHYATGKCHSF [phage isolate WTECHYATGKCHSF], “binds”; with AVTCWALTGHCVEE [phage isolate AVTCWALTGHCVEE], “binds”.
With GINCYPATGKCQMG [phage isolate GINCYPATGKCQMG] the entry was “binds”.
For the molecule WVQCASDTGKCIMG [phage isolate WVQCASDTGKCIMG], the binding result was “binds”.
On to GITCYSATGKCQMW [phage isolate GITCYSATGKCQMW], for which the binding result was “binds”.
With GVWCDMVTGWCYHG [phage isolate GVWCDMVTGWCYHG] the entry was “binds”; with VWECAKTFPFCHWF [phage isolate VWECAKTFPFCHWF], “binds”; with GITCYSDTGKCFSF [phage isolate GITCYSDTGKCFSF], “binds”.
Then WLECYAEFGHCYNF [phage isolate WLECYAEFGHCYNF], with “binds”; and WLECYTEFGHCYNF [phage isolate WLECYTEFGHCYNF], with “binds”.
With KELCEDDWYYCYLM [phage isolate KELCEDDWYYCYLM] the entry was “binds”.

The values above are taken from patent publication EP2014310A2 (Dyax Corporation, dated 2009).
